Source: patent US20040259816A1

Target: PKC δ (rat), P09215
Assay: cell-based or functional assay

Sequence of PKC δ (rat), P09215 (P09215 whole entry, stated change not applied): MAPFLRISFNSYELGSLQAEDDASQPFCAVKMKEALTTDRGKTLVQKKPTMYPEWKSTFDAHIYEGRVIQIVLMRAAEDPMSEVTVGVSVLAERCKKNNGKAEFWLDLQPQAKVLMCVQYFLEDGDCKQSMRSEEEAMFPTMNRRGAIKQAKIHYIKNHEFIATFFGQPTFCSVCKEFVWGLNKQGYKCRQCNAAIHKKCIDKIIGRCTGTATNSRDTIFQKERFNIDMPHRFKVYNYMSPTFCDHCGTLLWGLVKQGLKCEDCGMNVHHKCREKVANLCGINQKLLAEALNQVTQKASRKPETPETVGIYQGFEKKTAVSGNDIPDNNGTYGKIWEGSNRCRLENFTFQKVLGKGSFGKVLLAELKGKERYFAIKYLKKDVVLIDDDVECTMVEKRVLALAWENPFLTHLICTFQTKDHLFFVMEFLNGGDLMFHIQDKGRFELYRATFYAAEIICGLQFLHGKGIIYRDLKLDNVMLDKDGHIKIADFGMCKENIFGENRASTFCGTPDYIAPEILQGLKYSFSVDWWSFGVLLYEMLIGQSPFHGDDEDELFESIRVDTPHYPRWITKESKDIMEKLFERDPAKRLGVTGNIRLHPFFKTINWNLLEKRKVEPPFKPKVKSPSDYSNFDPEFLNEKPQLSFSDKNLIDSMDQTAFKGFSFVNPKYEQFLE

In the case of SFNSYELGSLRQIKIWFQNRRMKWKK [PKC δ translocation inhibitor δV1-1 conjugated to Drosophila antennapedia peptide], the inhibition of CCK-8 induced NF-κB activation (EMSA band intensity, rat pancreatic acini, 10 µM peptide) is reported as 76% and the inhibition of TNF-α induced NF-κB activation (EMSA band intensity, rat pancreatic acini, 10 µM peptide) is reported as 57%.
